We go through 13 substances from article PMC2173521.

Assay [1] concerns the target N-1 peptide (derived from HRA of the SV5 F protein) (SV5 (W3A strain)).
For assay [2] the target is unchanged. Description: AUC.

“C-1 peptide (derived from HRB of the SV5 F protein), wild type” returned an IC50 inhibition of cell–cell fusion by SV5 F (T7 luciferase reporter gene assay) in assay [1] of 38 nM. In turn, C-1 peptide I449L showed an IC50 inhibition of cell–cell fusion by SV5 F (T7 luciferase reporter gene assay) in assay [1] of 54 nM. In assay [2], the Mobs/Mcalc (mol wt found over that calculated for one N-1/C-1 heterodimer) was 2.8. In turn, C-1 peptide L447V yielded an IC50 inhibition of cell–cell fusion by SV5 F (T7 luciferase reporter gene assay) in assay [1] of 83 nM. Further, the Mobs/Mcalc (mol wt found over that calculated for one N-1/C-1 heterodimer) in assay [2] was 2.8.

With C-1 peptide I449W, in assay [1], the IC50 inhibition of cell–cell fusion by SV5 F (T7 luciferase reporter gene assay) worked out at 146 nM. C-1 peptide I449F gave an IC50 inhibition of cell–cell fusion by SV5 F (T7 luciferase reporter gene assay) in assay [1] of 151 nM. Also, the Mobs/Mcalc (mol wt found over that calculated for one N-1/C-1 heterodimer) in assay [2] was 2.9. Consider C-1 peptide I449A, for which the IC50 inhibition of cell–cell fusion by SV5 F (T7 luciferase reporter gene assay) in assay [1] came out at 115 nM. The Mobs/Mcalc (mol wt found over that calculated for one N-1/C-1 heterodimer) in assay [2] is 2.8. For C-1 peptide L447W the same measures were 106 nM and 3.1. Regarding C-1 peptide I449V, the IC50 inhibition of cell–cell fusion by SV5 F (T7 luciferase reporter gene assay) in assay [1] stood at 58 nM. For the same substance, the Mobs/Mcalc (mol wt found over that calculated for one N-1/C-1 heterodimer) in assay [2] is 3. In turn, C-1 peptide L447I came in with an IC50 inhibition of cell–cell fusion by SV5 F (T7 luciferase reporter gene assay) in assay [1] of 50 nM. Besides, the Mobs/Mcalc (mol wt found over that calculated for one N-1/C-1 heterodimer) in assay [2] is 2.8. As to C-1 peptide L447A, the IC50 inhibition of cell–cell fusion by SV5 F (T7 luciferase reporter gene assay) in assay [1] was determined as 92 nM. Also, the Mobs/Mcalc (mol wt found over that calculated for one N-1/C-1 heterodimer) in assay [2] was 2.8. Substance C-1 peptide I449G showed an IC50 inhibition of cell–cell fusion by SV5 F (T7 luciferase reporter gene assay) in assay [1] of 271 nM. For the same substance, in assay [2], the Mobs/Mcalc (mol wt found over that calculated for one N-1/C-1 heterodimer) was 2.9. C-1 peptide L447G displayed an IC50 inhibition of cell–cell fusion by SV5 F (T7 luciferase reporter gene assay) in assay [1] of 150 nM. Besides, the Mobs/Mcalc (mol wt found over that calculated for one N-1/C-1 heterodimer) in assay [2] was 2.7. As to C-1 peptide L447F, in assay [1], the IC50 inhibition of cell–cell fusion by SV5 F (T7 luciferase reporter gene assay) was determined as 100 nM. Also, in assay [2], the Mobs/Mcalc (mol wt found over that calculated for one N-1/C-1 heterodimer) was 2.9.
